Data: article PMC9307952, “Lipoate protein ligase B primarily recognizes the C8-phosphopantetheine arm of its donor substrate and weakly binds the acyl carrier protein” (The Journal of Biological Chemistry, 2022)

Substrate: CCCCCCCC(=O)SCCNC(=O)CCNC(=O)[C@H](O)C(C)(C)COP(=O)(O)OP(=O)(O)OC[C@H]1O[C@@H](n2cnc3c(N)ncnc32)[C@H](O)[C@@H]1OP(=O)(O)O
Test: purified protein
Conditions: 5 μM LipB, 25 μM E. coli GcvH as acceptor, 0-160 μM C8-CoA, 50 mM Tris-HCl, 200 mM NaCl, pH 8.0, 30 °C

B1: E. coli LipB (EcLipB) (Escherichia coli K-12) (protein)
chain: MYQDKILVRQLGLQPYEPISQAMHEFTDTRDDSTLDEIWLVEHYPVFTQGQAGKAEHILMPGDIPVIQSDRGGQVTYHGPGQQVMYVLLNLKRRKLGVRELVTLLEQTVVNTLAELGIEAHPRADAPGVYVGEKKICSLGLRIRRGCSFHGLALNVNMDLSPFLRINPCGYAGMEMAKISQWKPEATTNNIAPRLLENILALLNNPDFEYITA
With B1 as the protein, how does the Km read?
The Km was 12.24 ± 0.79 µM.

What about the Vmax of the same protein?
The Vmax was 1.08 µmol/min.

What about the kcat of the same protein?
Its kcat is 0.00367 s⁻¹.
